Experiment [1] deals with T1, APP MAP peptide WT (wild type = ISEVKMDA x8), APP aa 666-673 (also: multiple antigenic peptide, 8 copies, core not described).
T1 construct: Eight copies of the octapeptide as a multiple antigenic peptide; the branching core is not described; also called WT peptide
T1 peptide: ISEVKMDA
The experiment can be described thus: BIAcore SPR; reference BBS1. How it is done:
(§1) The affinity of new MAbs was assessed by BIAcore. Protein G was immobilized on the CM5 chip as capturing molecule for the different mAbs. Each mAb (ligand) was bound separately to Protein G, and different APP MAP peptides were added separately to the liquid phase (analytes) at different concentrations to test the affinity of the mAb to each peptide. Each mAb was tested for its affinity to the different APP MAP peptides for aa 666-673 WT (wild type=[…], SEQ ID NO:18), IP (immunizing peptide=[…], SEQ ID NO:15), and SW ([…], SEQ ID NO:17). The chip was regenerated by HCl after each cycle of mAb-peptide.
On the technique in general: SPR reads the build-up and loss of mass on a sensor chip optically.

The target of experiment [2] is T1, APP MAP peptide WT (wild type = …). The experiment can be described thus: BIAcore SPR; mAb captured on Protein G on CM5 chip, MAP peptide as analyte. How it is done:
as §1

The target in experiment [3] is T2, APP MAP peptide IP (immunizing peptide = ISEVKLDA x8), half-Swedish mutation (also: multiple antigenic peptide, 8 copies, core not described).
T2 construct: Eight copies as a MAP; the core is not described; also called MAP1-IP
T2 peptide: ISEVKLDA
Described as above. How it is done:
as §1

For experiment [4], the target named is T3, APP MAP peptide SW (double Swedish mutation = ISEVNLDA x8) (also: multiple antigenic peptide, 8 copies, core not described).
T3 construct: Eight copies as a MAP; the core is not described
T3 peptide: ISEVNLDA
The experiment is described as above. How it is done: as §1

We go through two molecules from patent publication US20160017025A1 (RAMOT AT TEL AVIV UNIVERSITY, published 2016).

Ends that are not written are not given here.

B1: F5.100 (BBS3) mAb (antibody, mouse IgG1, kappa, V domains shown)
VH: EVQLQQSGPELVKPGASVKISCKASGYTFTDYNMHWVKQSHGKRLEWIGYIYPHNGGTGYNQRFKSKATLTVDKSSSTAYMELRSLTSEDSAVYYCARPGTEAYWGQGTLVTVSA
VL: DIVMTQSQKFMSTSVGDRVSVTCKASQNVGTNVAWYQQKPGQSPKPLIYSASYRYSGVPDRFTGSGSGTDFTLTISNVQSEDLAEYFCQQFNSYPLTFGAGTKLELKR
notes: Mouse hybridoma IgG1; The mature N-termini were found as EVQLQ (H chain; D = residue 21); also called F5.100 mAb; murine BBS3 mAb
Turning to B1, the “fold improvement in affinity over BBS1” value in experiment [1] was 1000 fold. The Kd was determined as 1.5 nM in experiment [2], 3.8 nM in experiment [3] and 8.8 nM in experiment [4].

B2: F5.87 mAb (antibody, mouse IgG1, kappa, V domains shown)
VH: EVKLEESGGGLVQPGGSMKLSCAASGFTFSNAWMDWVRQSPEKGLEWVAEIRSKANNHATYYGESVKGRFTISRDDSKSSVYLQMNSLRAEDTGIYYCTATVRGGYWGQGTTLTVSS
VL: DIKMTQSPSSMYASLGERVTITCKASQDINSYLSWFQQKPGKSPKTLIYRANRLVDGVPSRFSGSGSGQDYSLTISSLEYEDMGIYYCLQYDEYPYTFGGGTKLEIKR
notes: Mouse hybridoma IgG1
In the case of B2, in experiment [1], the “fold improvement in affinity over BBS1” value turned out to be 1000 fold. The results for the Kd in experiment [2], in experiment [3] and in experiment [4] were 3.3 nM, 1.2 nM and 1.1 nM, respectively.
